# Measured values taken from the supplement of paper PMC5998384.
# Legend:
# [1] = test system: HeLa Kyoto; test: melting temperature (median over replicates), in situ; higher = more thermally stable
# [2] = test system: HeLa Kyoto; test: solubility in G1/S (NP-40 vs SDS abundance) (log2 ratio); higher = more soluble; settings: cell cycle stage: G1/S
# [3] = test system: HeLa Kyoto; test: thermal stability score vs G1/S (z-score of summed log2 fold changes over temperatures); higher = more thermally stable than in G1/S
# [4] = test system: HeLa Kyoto; test: solubility change mitosis vs G1/S (difference of NP-40 vs SDS log2 ratios) (log2 ratio difference); higher = more soluble in mitosis
# [5] = cell cycle stage: early G1 (4.5 h after nocodazole release)
# 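Throughout, for melting temperature (median over replicates), in situ: HeLa Kyoto cells synchronized by double thymidine or nocodazole block, proteins quantified by TMT10plex mass spectrometry, three independent biological replicates.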
# 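Throughout, for solubility change mitosis vs G1/S (difference of NP-40 vs SDS log2 ratios): synchronized HeLa Kyoto cells (double thymidine block for G1/S, nocodazole release for mitosis), protein amounts in NP-40 versus SDS lysates quantified by mass spectrometry, three biological replicates.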
# 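Throughout, for solubility in G1/S (NP-40 vs SDS abundance): HeLa Kyoto cells arrested at G1/S by double thymidine block, proteins quantified by TMT10plex mass spectrometry in mild NP-40 versus SDS extracts, three biological replicates.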
# 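Throughout, for thermal stability score vs G1/S (z-score of summed log2 fold changes over temperatures): synchronized HeLa Kyoto cells, proteins quantified by TMT10plex mass spectrometry, three biological replicates, mitosis taken 0.5 h after nocodazole release, G1/S directly after double thymidine block.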
Substance,melting temperature ([1]; cell cycle stage: G1/S),melting temperature ([1]; cell cycle stage: mitosis),solubility in G1/S (log2) [2],"thermal stability score [3, 5]",thermal stability score ([3]; cell cycle stage: mitosis),solubility change mitosis (log2) [4]
MEKLHQCYWKSGEPQSDDIEASRMKRAAAKHLIERYYHQLTEGCGNEACTNEFCASCPTFLRMDNNAAAIKALELYKINAKLCDPHPSKKGASSAYLENSKGAPNNSCSEIKMNKKGARIDFKDVTYLTEEKVYEILELCREREDYSPLIRVIGRVFSSAEALVQSFRKVKQHTKEELKSLQAKDEDKDEDEKEKAACSAAAMEEDSEASSSRIGDSSQGDNNLQKLGPDDVSVDIDAIRRVYTRLLSNEKIETAFLNALVYLSPNVECDLTYHNVYSRDPNYLNLFIIVMENRNLHSPEYLEMALPLFCKAMSKLPLAAQGKLIRLWSKYNADQIRRMMETFQQLITYKVISNEFNSRNLVNDDDAIVAASKCLKMVYYANVVGGEVDTNHNEEDDEEPIPESSELTLQELLGEERRNKKGPRVDPLETELGVKTLDCRKPLIPFEEFINEPLNEVLEMDKDYTFFKVETENKFSFMTCPFILNAVTKNLGLYYDNRIRMYSERRITVLYSLVQGQQLNPYLRLKVRRDHIIDDALVRLEMIAMENPADLKKQLYVEFEGEQGVDEGGVSKEFFQLVVEEIFNPDIGMFTYDESTKLFWFNPSSFETEGQFTLIGIVLGLAIYNNCILDVHFPMVVYRKLMGKKGTFRDLGDSHPVLYQSLKDLLEYEGNVEDDMMITFQISQTDLFGNPMMYDLKENGDKIPITNENRKEFVNLYSDYILNKSVEKQFKAFRRGFHMVTNESPLKYLFRPEEIELLICGSRNLDFQALEETTEYDGGYTRDSVLIREFWEIVHSFTDEQKRLFLQFTTGTDRAPVGGLGKLKMIIAKNGPDTERLPTSHTCFNVLLLPEYSSKEKLKERLLKAITYAKGFGML [UBE3A],52.8 °C,52 °C,-0.0632,-0.231,-0.936,-0.175
WBSCR16,53.6 °C,52.7 °C,-0.259,0.481,-0.564,-0.168
MPFPVTTQGSQQTQPPQKHYGITSPISLAAPKETDCVLTQKLIETLKPFGVFEEEEELQRRILILGKLNNLVKEWIREISESKNLPQSVIENVGGKIFTFGSYRLGVHTKGADIDALCVAPRHVDRSDFFTSFYDKLKLQEEVKDLRAVEEAFVPVIKLCFDGIEIDILFARLALQTIPEDLDLRDDSLLKNLDIRCIRSLNGCRVTDEILHLVPNIDNFRLTLRAIKLWAKRHNIYSNILGFLGGVSWAMLVARTCQLYPNAIASTLVHKFFLVFSKWEWPNPVLLKQPEECNLNLPVWDPRVNPSDRYHLMPIITPAYPQQNSTYNVSVSTRMVMVEEFKQGLAITDEILLSKAEWSKLFEAPNFFQKYKHYIVLLASAPTEKQRLEWVGLVESKIRILVGSLEKNEFITLAHVNPQSFPAPKENPDKEEFRTMWVIGLVFKKTENSENLSVDLTYDIQSFTDTVYRQAINSKMFEVDMKIAAMHVKRKQLHQLLPNHVLQKKKKHSTEGVKLTALNDSSLDLSMDSDNSMSVPSPTSATKTSPLNSSGSSQGRNSPAPAVTAASVTNIQATEVSVPQVNSSESSGGTSSESIPQTATQPAISPPPKPTVSRVVSSTRLVNPPPRSSGNAATSGNAATKIPTPIVGVKRTSSPHKEESPKKTKTEEDETSEDANCLALSGHDKTEAKEQLDTETSTTQSETIQTAASLLASQKTSSTDLSDIPALPANPIPVIKNSIKLRLNR [PAPOLA],51.6 °C,52 °C,0.109,1.44,1.67,-0.238
MSQAVQTNGTQPLSKTWELSLYELQRTPQEAITDGLEIVVSPRSLHSELMCPICLDMLKNTMTTKECLHRFCADCIITALRSGNKECPTCRKKLVSKRSLRPDPNFDALISKIYPSRDEYEAHQERVLARINKHNNQQALSHSIEEGLKIQAMNRLQRGKKQQIENGSGAEDNGDSSHCSNASTHSNQEAGPSNKRTKTSDDSGLELDNNNAAMAIDPVMDGASEIELVFRPHPTLMEKDDSAQTRYIKTSGNATVDHLSKYLAVRLALEELRSKGESNQMNLDTASEKQYTIYIATASGQFTVLNGSFSLELVSEKYWKVNKPMELYYAPTKEHK [RNF2],49.2 °C,51.7 °C,-0.307,0.412,0.728,0.211
MLVVEVANGRSLVWGAEAVQALRERLGVGGRTVGALPRGPRQNSRLGLPLLLMPEEARLLAEIGAVTLVSAPRPDSRHHSLALTSFKRQQEESFQEQSALAAEARETRRQELLEKITEGQAAKKQKLEQASGASSSQEAGSSQAAKEDETSDGQASGEQEEAGPSSSQAGPSNGVAPLPRSALLVQLATARPRPVKARPLDWRVQSKDWPHAGRPAHELRYSIYRDLWERGFFLSAAGKFGGDFLVYPGDPLRFHAHYIAQCWAPEDTIPLQDLVAAGRLGTSVRKTLLLCSPQPDGKVVYTSLQWASLQ [TSEN34],49.3 °C,49.8 °C,0.191,1.68,2.17,-0.159
